Experimental data as given in paper PMC4285774.
Read-outs that look alike come from different tables or passages of the source.

Tests used:
Assay in all cases: fluorescence anisotropy
Prp2 [1] = target: T1, Prp2 (UniProt P20095 1-876)
T1 sequence: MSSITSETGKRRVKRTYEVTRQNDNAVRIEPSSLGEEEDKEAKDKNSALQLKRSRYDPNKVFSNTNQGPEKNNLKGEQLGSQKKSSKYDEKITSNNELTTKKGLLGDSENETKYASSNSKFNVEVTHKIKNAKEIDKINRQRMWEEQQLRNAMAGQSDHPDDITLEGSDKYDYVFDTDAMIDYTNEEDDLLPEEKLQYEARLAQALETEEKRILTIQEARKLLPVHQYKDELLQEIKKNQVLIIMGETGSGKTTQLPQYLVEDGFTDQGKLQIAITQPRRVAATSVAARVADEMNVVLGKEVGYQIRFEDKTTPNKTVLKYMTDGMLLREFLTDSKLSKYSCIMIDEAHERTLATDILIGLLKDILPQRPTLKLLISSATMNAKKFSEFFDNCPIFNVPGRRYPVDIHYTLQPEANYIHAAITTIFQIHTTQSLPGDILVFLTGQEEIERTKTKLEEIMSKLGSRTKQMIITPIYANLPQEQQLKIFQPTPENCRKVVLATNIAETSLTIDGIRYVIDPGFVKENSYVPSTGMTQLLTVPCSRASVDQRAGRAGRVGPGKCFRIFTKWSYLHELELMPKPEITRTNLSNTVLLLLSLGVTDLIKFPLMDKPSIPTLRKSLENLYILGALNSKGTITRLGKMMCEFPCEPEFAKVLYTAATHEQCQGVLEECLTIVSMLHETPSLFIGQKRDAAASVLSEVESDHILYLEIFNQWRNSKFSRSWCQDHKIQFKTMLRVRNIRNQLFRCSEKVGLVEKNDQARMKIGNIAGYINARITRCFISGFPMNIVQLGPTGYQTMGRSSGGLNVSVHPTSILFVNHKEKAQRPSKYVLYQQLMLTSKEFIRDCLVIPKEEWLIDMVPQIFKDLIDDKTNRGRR

Prp2 [2] = target: T1, Prp2; remark: listed apart in the source
Prp2;Spp2 = target: T2, Prp2;Spp2 (Saccharomyces cerevisiae?;Saccharomyces …, UniProt P20095;Q02521 1-876;36-185, |)
T2 sequence 1: T1 sequence
T2 sequence 2: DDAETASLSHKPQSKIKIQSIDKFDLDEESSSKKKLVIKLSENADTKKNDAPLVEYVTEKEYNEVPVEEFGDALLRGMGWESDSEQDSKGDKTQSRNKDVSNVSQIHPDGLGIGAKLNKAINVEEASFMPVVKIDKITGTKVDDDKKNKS

Spp2 = target: T3, Spp2 (UniProt Q02521 36-185)
T3 sequence: T2 sequence 2

B1: 24-nt ssRNA (ssRNA)
RNA: GGCCGCGAGAAAAAAAAAAAAAAA
Kd (Prp2 [1]): 70 ± 11 nM
Kd (Prp2 [2]): 53 ± 5 nM
binding result (Prp2;Spp2): binds
binding result (Spp2): no binding
